Data: patent US20120107933A1 (GOVERNMENT OF THE UNITED STATES AS REPRESENTED BY THE …, published 2012)

Key:
[1] = target: human mesothelin on the cell surface (A431/H9 transfectants and human cancer cell lines) (human) (UniProt Q13421); assay: cell-based or functional assay
[2] = target: rabbit IgG Fc-human mesothelin fusion protein (full-length extracellular domain, 296-581) (rabbit; human) (UniProt Q13421); assay: SPR (Biacore T100), […], kinetic titration
[3] = target: T1, mouse mesothelin (form not stated) (mouse, UniProt Q61468 298-600)
T1 sequence (looked up): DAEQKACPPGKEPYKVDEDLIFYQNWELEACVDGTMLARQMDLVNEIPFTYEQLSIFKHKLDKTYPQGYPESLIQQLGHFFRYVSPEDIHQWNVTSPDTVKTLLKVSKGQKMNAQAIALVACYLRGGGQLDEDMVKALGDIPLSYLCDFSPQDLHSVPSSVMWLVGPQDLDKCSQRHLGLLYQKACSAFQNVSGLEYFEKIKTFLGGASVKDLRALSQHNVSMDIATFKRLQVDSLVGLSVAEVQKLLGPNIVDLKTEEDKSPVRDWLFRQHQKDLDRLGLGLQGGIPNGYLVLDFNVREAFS

[4] = target: human mesothelin (form not stated) (human, UniProt Q13421 296-581)
[5] = target: T2, rabbit IgG Fc-human mesothelin fusion protein (full-length extracellular domain, 296-581) (rabbit; human, UniProt Q13421 296-581)
[6] = target: T2, rabbit IgG Fc-human mesothelin fusion …; assay: SPR (Biacore T100), rFc-mesothelin injected over amine-coupled HN1 mAb, kinetic titration
Protocol: Binding experiments were performed on a BIACORE T100 instrument (GE Healthcare, Piscataway N.J.). […] Hepes buffer (pH-7.4) is used as the running buffer. The rFc-mesothelin (20 μg/mL) was captured on the CM5 sensor chip using a manual injection targeting about 500 RU density. […] Data were fit to a simple 1:1 interaction model, a heterogeneous ligand model or a two state binding model using the global data analysis software provided by GE Healthcare (Biaevaluation 4.1).

Sequence of human mesothelin on the cell surface (A431/H9 transfectants and human cancer cell lines) (human) (Q13421 other isoform, or with tags, fused parts or gaps limits assumed): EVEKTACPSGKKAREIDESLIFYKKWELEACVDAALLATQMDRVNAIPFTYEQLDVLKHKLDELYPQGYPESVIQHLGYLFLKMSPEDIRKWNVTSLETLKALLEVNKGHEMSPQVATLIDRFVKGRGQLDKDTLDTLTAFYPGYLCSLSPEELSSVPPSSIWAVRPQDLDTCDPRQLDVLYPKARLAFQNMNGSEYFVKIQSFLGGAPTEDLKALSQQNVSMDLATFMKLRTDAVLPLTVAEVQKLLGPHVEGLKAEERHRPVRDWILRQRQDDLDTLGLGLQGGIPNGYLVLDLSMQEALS
T2 sequence (Q13421 other isoform, or with tags, fused parts or gaps limits assumed, form in doubt): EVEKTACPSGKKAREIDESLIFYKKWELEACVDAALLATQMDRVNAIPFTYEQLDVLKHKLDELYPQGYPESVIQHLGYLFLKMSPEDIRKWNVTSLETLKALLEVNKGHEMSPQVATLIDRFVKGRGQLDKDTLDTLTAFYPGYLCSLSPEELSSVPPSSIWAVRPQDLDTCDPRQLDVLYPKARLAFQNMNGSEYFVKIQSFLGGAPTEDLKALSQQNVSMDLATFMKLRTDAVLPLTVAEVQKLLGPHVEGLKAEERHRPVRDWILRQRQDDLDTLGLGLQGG
Sequence of human mesothelin (form not stated) (Q13421 other isoform, or with tags, fused parts or gaps limits assumed): as the sequence (Q13421 other isoform, or with tags, fused parts or gaps limits assumed, form in doubt) above
Sequence of rabbit IgG Fc-human mesothelin fusion protein (full-length extracellular domain, 296-581) (rabbit; human) (Q13421 other isoform, or with tags, fused parts or gaps limits assumed, form in doubt): as above

## HA22, an anti-CD22 scFv
[1]
  Cytotoxic Assays (WST), IC50 of cell viability, H9 cells: > 1 µg/mL
  Cytotoxic Assays (WST), IC50 of cell viability, H226 cells: > 1 µg/mL

## HN1 scFv immunotoxin (HN1 scFv fused to truncated Pseudomonas exotoxin PE38) (from UniProt P11439 278-389; P11439 406-638)
[1]
  Cytotoxic Assays (WST), IC50 of cell viability, H226 cells: 0.013 µg/mL
[2]
  Kd: 100 nM

B1: HN2 antibody (form not stated) (antibody, V domains shown)
VH: EVQLLESGGGLVQPGGSLRPSCAASGFTFSSYAMSWVRQAPGKGLEWVSAISGSGGSTHYADSVKGRFTISRDNSKNTLYLQMNSLRAEDTAVYYCVRGGALGFDNWGRGTMVTVSS
VL: VLTQPPSVSEAPRQRVTISCSGSTSNIGSNVVNWYQQFPGKPPKVVIYYDDLVASGVSDRFSGSRSGTSASLAISGLQSEDEADYYCSAWDDSLNAWVFGGGTKVTV
[3]
  Kd: ~1.5 nM
[4]
  Kd: ~1.5 nM

B2: HN1 fully human IgG (IgG gamma1 kappa) (antibody, V domains shown)
VH: QVQLVQSGAEVKRPGASVQVSCRASGYSINTYYMQWVRQAPGAGLEWMGVINPSGVTSYAQKFQGRVTLTNDTSTNTVYMQLNSLTSADTAVYYCARWALWGDFGMDVWGKGTLVTVSS
VL: DIQMTQSPSTLSASIGDRVTITCRASEGIYHWLAWYQQKPGKAPKLLIYKASSLASGAPSRFSGSGSGTDFTLTISSLQPDDFATYYCQQYSNYPLTFGGGTKLEIKR
notes: also called HN1 IgG; HN1 mAb
[5]
  fold better affinity than the scFv molecule: > 30 fold
[6]
  Kd: 3 nM

B3: HN1 antibody (form not stated) (antibody, V domains shown)
VH: B2 VH
VL: DIQMTQSPSTLSASIGDRVTITCRASEGIYHWLAWYQQKPGKAPKLLIYKASSLASGAPSRFSGSGSGTDFTLTISSLQPDDFATYYCQQYSNYPLTFGGGTKLEIK
[4]
  Kd: ~7.5 nM
